B1: dsS0mm (dsDNA)
DNA 1: GCGTCGAGACGC
DNA 2: GCGTCGAGACGC
B2: PRDIII-I (dsDNA)
DNA 1: GAGGAAAACTGAAAGGGAACTGAAA
DNA 2: TTTCAGTTCCCTTTCAGTTTTCCTC
B3: S0_x2 (dsDNA)
DNA 1: AGCGTCGAGACGCGCGTCGAGACGC
DNA 2: TGCGTCTCGACGCGCGTCTCGACGC
B4: v1 (dsDNA)
DNA 1: AGGCACGCGTCCAGGCAACCGGG
DNA 2: TCCCGGTTGCCTGGACGCGTGCC
B5: v2 (dsDNA)
DNA 1: ATAACTGGGAGGCGACGCTGGCG
DNA 2: TCGCCAGCGTCGCCTCCCAGTTA
B6: N25 (dsDNA)
DNA 1: TATACAAACCCCTTACCAATATCATA
DNA 2: ATATGATATTGGTAAGGGGTTTGTAT

target: T1, vIRF-1 DBD (vIRF-1 88-196) (Kaposi's sarcoma-associated herpesvirus …, UniProt F5HF68 88-196); assay: X-ray crystallography
T1 sequence (F5HF68 88-196): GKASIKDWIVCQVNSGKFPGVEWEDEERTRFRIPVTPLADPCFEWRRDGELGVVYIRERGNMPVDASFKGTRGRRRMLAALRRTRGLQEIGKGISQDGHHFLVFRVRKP

Row | Binder | binding result
1 | B1 | binds

target: T1, vIRF-1 DBD (vIRF-1 88-196); assay: thermal stability shift assay

Row | Binder | binding result
2 | B2 | binds
3 | B3 | binds
4 | B4 | binds
5 | B5 | binds
6 | B6 | binds

From paper PMC3627575
